Assay results as given in article PMC12556795, “Intrinsically disordered cytoplasmic tail in netrin receptor DCC binds the large ribosomal subunit to inhibit translation” (The Journal of Biological Chemistry, 2025).
Where no end group is shown, it is not given here.

Molecular target: Ribosomal protein eL5/uL18 (H. sapiens rpL5) (H. sapiens, UniProt P46777 1-297)
Assay: NMR titration; 15N-1H HSQC at 25 °C, 35 uM 15N WT N29+P1 or 80 uM KRK→AAA N29+P1 with unlabelled rpL5 at a 1:1 ratio, phosphate buffer pH 6.4 with 5% v/v glycerol; chemical shift perturbations and peak disappearance
Details: both partners purified

binding result: binds
B1: DCC C-tail N29+P1 protein (residues 1121-1167) (domain or fragment)
chain: CTRRSSAQQRKKRATHSAGKRKGSQKDLRPPDLWIHHEEMEMKNIEK
modifications: also: Cy5 label via maleimide (MST only), 15N-labelled (NMR only)
notes: Residues 1121-1122 were included to give a terminal cysteine for labelling; also called WT N29+P1; DCC N29-P1; source: E. coli LOBSTR-BL21(DE3), purified (Ni-NTA, Superdex 75)
